One molecule from PMC11564117, “Control of mitophagy initiation and progression by the TBK1 adaptors NAP1 and SINTBAD” (Nature Structural & Molecular Biology, 2024) can be followed below.

The target of the test is T1, SINTBAD–mCherry (UniProt A7MCY6 1-615).
T1 construct: the legend says SINTBAD-mCherry; also called mCherry–SINTBAD; similar to NAP1 TBK1 adaptor; source: Sf9 insect cells, purified (GST-batch protocol); not shown: mCherry, C-terminal, kept
The experiment in a line: microscopy-based bead assay; Figs. 5b, 7d, 7f, Extended Data Fig. 9b: GST–4×Ub on glutathione beads; OPTN (mCherry-tagged or unlabeled) and GFP–TBK1 250 nM; NAP1, MBP–NAP1 or SINTBAD–mCherry 100 nM to 10 µM; unlabeled NDP52 250 nM where indicated; 25 mM Tris-HCl pH 7.4, 150 mM NaCl, 1 mM DTT; Fig. 5b without ATP, Fig. 7f with or without ATP/MgCl2; 30 min; confocal imaging. As to conditions: both partners purified.

T1 sequence (A7MCY6 whole entry): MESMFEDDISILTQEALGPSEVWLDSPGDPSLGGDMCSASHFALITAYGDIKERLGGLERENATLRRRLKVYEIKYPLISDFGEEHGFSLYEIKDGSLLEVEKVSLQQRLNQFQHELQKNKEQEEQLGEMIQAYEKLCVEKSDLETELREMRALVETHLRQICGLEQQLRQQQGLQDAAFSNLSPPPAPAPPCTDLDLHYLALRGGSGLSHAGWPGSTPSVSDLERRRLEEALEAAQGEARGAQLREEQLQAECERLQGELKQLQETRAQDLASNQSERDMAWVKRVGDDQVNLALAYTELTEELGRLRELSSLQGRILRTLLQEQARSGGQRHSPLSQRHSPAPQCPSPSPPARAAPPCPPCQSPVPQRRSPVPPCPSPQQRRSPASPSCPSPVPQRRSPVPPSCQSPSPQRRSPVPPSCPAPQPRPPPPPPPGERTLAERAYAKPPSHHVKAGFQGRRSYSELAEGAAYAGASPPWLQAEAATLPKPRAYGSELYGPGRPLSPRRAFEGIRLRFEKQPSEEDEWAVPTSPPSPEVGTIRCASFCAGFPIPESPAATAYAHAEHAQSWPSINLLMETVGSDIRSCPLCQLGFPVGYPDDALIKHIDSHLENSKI

B1: NDP52 (unlabeled) (natural protein, human, UniProt Q13137 1-446, looked up)
chain: MEETIKDPPTSAVLLDHCHFSQVIFNSVEKFYIPGGDVTCHYTFTQHFIPRRKDWIGIFRVGWKTTREYYTFMWVTLPIDLNNKSAKQQEVQFKAYYLPKDDEYYQFCYVDEDGVVRGASIPFQFRPENEEDILVVTTQGEVEEIEQHNKELCKENQELKDSCISLQKQNSDMQAELQKKQEELETLQSINKKLELKVKEQKDYWETELLQLKEQNQKMSSENEKMGIRVDQLQAQLSTQEKEMEKLVQGDQDKTEQLEQLKKENDHLFLSLTEQRKDQKKLEQTVEQMKQNETTAMKKQQELMDENFDLSKRLSENEIICNALQRQKERLEGENDLLKRENSRLLSYMGLDFNSLPYQVPTSDEGGARQNPGLAYGNPYSGIQESSSPSPLSIKKCPICKADDICDHTLEQQQMQPLCFNCPICDKIFPATEKQIFEDHVFCHSL
notes: NDP52 (CALCOCO2), human cDNA in a pGST2 vector with N-terminal GST tag and TEV site; Called 'unlabeled NDP52' in the bead assays; also called nuclear dot protein 52; CALCOCO2; source: E. coli Rosetta pLysS, purified (GST-batch protocol)
Consider B1, for which the binding result was “binds”.
